Measured values from the supplement of paper PMC9170038.

Test system: MS2 coat protein
Assay: apparent KD of MS2 coat protein; designed switch direction (-1 OFF switch, 1 ON switch): 1; higher = weaker reporter binding
In short: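 The apparent KD reported per design is the median over clusters of curve fits to normalised cluster fluorescence. The RNA switches were transcribed on Illumina chips by stalled E. coli RNA polymerase. SNAP-549-labelled MS2 coat protein was titrated from 0.7 or 1.5 nM, doubling up to 3 µM, in Tris-HCl pH 7.5 buffer containing KCl, MgCl2, BSA, DTT, tRNA and Tween-20, with no input, 200 uM small-molecule ligand, or an oligonucleotide input.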

[1] = input ligand: microRNA oligo, concentration not stated
[2] = Eterna round: R95, input ligand: microRNA oligo, concentration not stated
[3] = Eterna round: R95, input ligand: FMN 200 uM
[4] = Eterna round: R95, input ligand: none

Sequence | apparent KD of MS2 coat protein (input ligand: FMN 200 uM) [µM] | apparent KD of MS2 coat protein [1] [µM] | apparent KD of MS2 coat protein (input ligand: none) [µM] | apparent KD of MS2 coat protein [2] [µM] | apparent KD of MS2 coat protein [3] [µM] | apparent KD of MS2 coat protein [4] [µM]
GAGGGACAGACCAACAUGAGGAUCACCCAUGUCCUCGCUGGUCAGGAUAUCCCGCCAACAGGCGAGGAGAAGGGACGGUGAACC (Eterna round: R96, puzzle: Same State NG 3) | 1.11 | 0.425 | 0.724 | – | – | –
GAGGGACAUGAGGAUCACCCAUGUGGUAAAUUUAAAGGAUAUUAGUGUGGGAAAGUAGGGUAAGAAGGUUGAUUGG [JR_SS1_Sub086] (puzzle: Same State 1) | – | – | – | 0.0877 | – | –
GAGUAGGACUUACAGGAUAUAUGGAGGUUGACAUGAGGAUCACCCAUGUCUGAGUUGGGAGGAGGAUAGAAGGGUAUGAGAGGCG [JR_SS2_Sub031] (puzzle: Same State 2) | – | – | – | 0.0233 | 0.0271 | 0.0228
GAGUAGUUGAAAGGAUAUAGAUUGUUGUAGGAUCUAGAAGGUUCUAACAUGAGGAUCACCCAUGUAGGACUAUUCCUGUGUAUC [Parity 87 - Jieux - Same State NG 1] (Eterna round: R96, puzzle: Same State NG 1) | 0.0115 | 0.00894 | 0.0131 | – | – | –
GAGUAGUUGAAAGGAUAUUGAUUAUUGUAGGAUCAAGAAGGUUUUAACAUGAGGAUCACCCAUGUAGGACUAUAAAUGUGAAAA [Parity 94 - Jieux - Same State NG 1] (Eterna round: R96, puzzle: Same State NG 1) | 0.0122 | 0.0101 | 0.0156 | – | – | –
GAGUGACGAUUAGGAUAUACAGUGAUAAUGAUAGUAGAAGGAAUUGACAUGAGGAUCACCCAUGUAGGACUAAUCCAGAGAGAG [Parity 29 - Jieux - Same State NG 1] (Eterna round: R96, puzzle: Same State NG 1) | 0.0865 | 0.0399 | 0.0578 | – | – | –
GAGUGAUGGGUUAGUAACUGCUGGGAAGGACAUGAGGAUCACCCAUGUGAGUAGCGAGCUUGUGCUCGUCUUAUUAG [JR_SHM208A_Sub023] (puzzle: Sensor for hsa-mir-208a) | – | – | – | 0.114 | 0.207 | 0.379
GAGUGGAGGAGAGGAUAUACAAUGAUAAUCACAGUAGAAGGUUCUAACAUGAGGAUCACCCAUGUAGGACUAUUCCUGAGAGAA [Parity 49 - Jieux - Same State NG 1] (Eterna round: R96, puzzle: Same State NG 1) | 0.0102 | 0.00932 | 0.0157 | – | – | –
GAGUGGCAGUUAGGAUAUAUAGUGAUAAUGAUAAUAGAAGGAACAGACAUGAGGAUCACCCAUGUAGGACUAAUCCAGAGAGAG [Parity 34 - Jieux - Same State NG 1] (Eterna round: R96, puzzle: Same State NG 1) | 0.0323 | 0.0217 | 0.0283 | – | – | –
GAGUGGUAGAGAGGAUAUGCAUUGUUAUUAAAUGCAGAAGGUUUUAACAUGAGGAUCACCCAUGUAGGACUAUUCCUGUGUUUC [Parity 66 - Jieux - Same State NG 1] (Eterna round: R96, puzzle: Same State NG 1) | – | 0.0108 | – | – | – | –
GCAGGACAUGAGGAUCACCCAUGUUCAAAAUAUUGAGGAUAUGGAUACGGUAUAUCCGAACCAGAAGGCAACCUGC [SS1 Teenbexe 22] (puzzle: Same State 1) | – | – | – | 0.0166 | – | –
GCAUGAGAGAUAGGAUAUCGUGUACCUACAUGUGACAUGAGGAUCACCCAUGUGGUAAGUAUGAGCGAGAAGGAUCCGAUAUGU [salish99_SSNG2_r04_1002] (Eterna round: R96, puzzle: Same State NG 2) | 0.0266 | 0.0444 | 0.0609 | – | – | –
GCAUGGUUACAUGCUAUACAUGAGGAUCACCCAUGUGAUGGGAAGGAUAUGUCCUCAAUUAGUGGACAGAAGGUCCAAACAUUU [Fiskers NG3ss - 1] (Eterna round: R96, puzzle: Same State NG 3) | 0.136 | 0.234 | 0.939 | – | – | –
GCCAUCGCAUGAGGAUAUGGCACCGUUUCGGUGCCAGAAGGCAUGUCAAAUGACAUGAGGAUCACCCAUGUAGUUAAGAUGGCA [JL Fiskers NG1ss - 33 mod 9] (Eterna round: R96, puzzle: Same State NG 1) | 0.0292 | 0.417 | 0.542 | – | – | –
GCCAUCGUAUGAGGAUAUGGCACCGUUUCGGUGCCAGAAGGCAUGUCAAUUGACAUGAGGAUCACCCAUGUAUUUUCGAUGGCA [JL Fiskers NG1ss - 33 mod 11] (Eterna round: R96, puzzle: Same State NG 1) | 0.0746 | 0.385 | 0.779 | – | – | –
GCCAUCGUGUGAGGAUAUGGCACCGUUUCGGUGCCAGAAGGCAUGUCAAUUGACAUGAGGAUCACCCAUGUAUUAGCGAUGGCA [JL Fiskers NG1ss - 33 mod 3] (Eterna round: R96, puzzle: Same State NG 1) | 0.159 | 0.292 | 0.988 | – | – | –
GCCGGCUGGUGAGGAUAUGGCGCCUUAUUGGUGCCAGAAGGCAUGUCAAUUGACAUGAGGAUCACCCAUGUGUUGUCGUUGGCG [salish99_SSNG1_r04_610] (Eterna round: R96, puzzle: Same State NG 1) | 0.695 | 0.357 | 0.353 | – | – | –
GCGAAAGCCGUAGGAUAUGUAGGAUAUGGCGAGAGCUAAGCUUGGAAGUCACUUCAGCCAGAAGGACAGAAGGACGCCGAAAGG [pwkr ssNG2 2FMN + F9.15] (Eterna round: R96, puzzle: Same State NG 2) | 1.41 | 0.387 | 0.0462 | – | – | –
GCGAGCGUACUUGCAGACAUGAGGAUCACCCAUGUAAAUGGGAAGGAUAUGGUACCGUUUCGGUACCAGAAGGUCCUAAGUGAU [salish99_SSNG3_r04_301] (Eterna round: R96, puzzle: Same State NG 3) | 0.665 | 1.08 | 1.13 | – | – | –
GCGCAGCCGGGUGAGGAUAUCGGUGGUAAAACAUGAGGAUCACCCAUGUCCGAAGCUCGGACUUCCGAGAAGGCGCCCAGCUGCA [Erisin] (puzzle: Same State 2) | – | – | – | 0.0612 | – | –
GCUAGAAAUAAAGCCAACAUGAGGAUCACCCAUGUAUGUUGGCAGGAUAUCGUUUGCAAAGCAAACGAGAAGGGCUAAACUAGC [Mat - Same State NG 3 - JL Mod - D5] (Eterna round: R96, puzzle: Same State NG 3) | 0.141 | 0.138 | 0.147 | – | – | –
GCUAGGAAUAAAGCCAACAUGAGGAUCACCCAUGUAUGUUGGUAGGAUAUCGUUUGCUUUGCAAACGAGAAGGGCUAACCUAGC [JL SSNG3 1.24] (Eterna round: R96, puzzle: Same State NG 3) | 0.0746 | 0.0645 | 0.0675 | – | – | –
GCUAGGAUAUGCAGAGGAUCACCCUGUAGAAGGAGCAUUAGCUAGGAUAUGCAGAGGAUCACCCUGUAGAAGGAGCACUACUCU [pwkr ssNG3 DX 2xF5 +2xFMN.1] (Eterna round: R96, puzzle: Same State NG 3) | 0.445 | 0.205 | 0.248 | – | – | –
GCUAGUAUUAUUGCUAACAUGAGGAUCACCCAUGUAUGUUGGCAGGAUAUCGUUUGCUUUGCAAACGAGAAGGGCUAAACUAGC [JL SSNG3 1.05] (Eterna round: R96, puzzle: Same State NG 3) | 0.0258 | 0.0654 | 0.0717 | – | – | –
GCUCGAUGAAAGUCCUACAUGAGGAUCACCCAUGUACGUGGGCAGGAUAUCUACAUGCAGAGUGUAGAGAAGGGCCCAUCGAGC [SameState NG3 #60] (Eterna round: R96, puzzle: Same State NG 3) | 0.0186 | 0.0226 | 0.0349 | – | – | –
GCUCGAUGAUAGGCCUACAUGAGGAUCACCCAUGUAAGUGGGCAGGAUAUCUAAAUGCAGAAUGUAGAGAAGGGCCCGUCGAGC [SameState NG3 #54] (Eterna round: R96, puzzle: Same State NG 3) | 0.612 | 0.239 | 1.46 | – | – | –
GCUCGAUGAUAGGCCUACAUGAGGAUCACCCAUGUGACUGGGCAGGAUAUCUAAAUGCAGAAUGUAGAGAAGGGCCCGUCGAGC [SameState NG3 #52] (Eterna round: R96, puzzle: Same State NG 3) | 0.269 | 0.0695 | 0.409 | – | – | –
GCUCGGACGAUGACCCACAUGAGGAUCACCCAUGUGCUUGGGCAGGAUAUCUAGAUUAAGGAUGUAGAGAAGGGUCGACCGAGC [SameState NG3 #29] (Eterna round: R96, puzzle: Same State NG 3) | 0.345 | 0.0903 | 0.211 | – | – | –
GCUCGUAUCACGACCGACAUGAGGAUCACCCAUGUAUGUUGGUAGGAUAUCUAUAUUAAGGAUAUAGAGAAGGGCCGAACGAGC [SameState NG3 #14] (Eterna round: R96, puzzle: Same State NG 3) | 0.0235 | 0.0248 | 0.0301 | – | – | –
GCUCGUAUGAUGACCGACAUGAGGAUCACCCAUGUGUGUCGGUAGGAUAUCUAUAUUAAGGAUAUAGAGAAGGGCCCAACGAGC [SameState NG3 #18] (Eterna round: R96, puzzle: Same State NG 3) | 0.114 | 0.103 | 0.158 | – | – | –
